# Experimental data as given in FireProtDB (doi:10.1093/protein/15.6.455).
# B1: Cytochrome c-551, P00099 (parent)
# chain: MKPYALLSLLATGTLLAQGAWAEDPEVLFKNKGCVACHAIDTKMVGPAYKDVAAKFAGQAGAEAELAQRIKNGSQGVWGPIPMPPNAVSDDEAQTLAKWVLSQK
# Variants of: B1
# Settings: Pseudomonas aeruginosa (strain ATCC 15692 / DSM 22644 / CIP 104116 / JCM 14847 / LMG 12228 / 1C / PRS 101 / PAO1), pH 3.6, Thermal, DSC, sodium acetate 50 mM, reversible: yes, structure 451C, whole UniProt chain shown; for ddG of mutation (higher = less stable) / heat capacity change of unfolding / unfolding enthalpy (calorimetric): 62.6 °C
Variant,ddG of mutation (higher = less stable) [kcal/mol],heat capacity change of unfolding [kcal/mol/K],unfolding enthalpy (calorimetric) [kcal/mol],Tm [°C],"change of melting temperature, mutant - wild type (higher = more stable) [°C]"
F29A V35M F56Y E65Y,-3.02,1,64.8,77.4,14.8
V100I,-1.11,0.73,65.6,,
F29A V35M V100I,-2.61,0.92,64.4,,
F29A V35M,-1.88,0.64,64.2,72.4,9.8
F56Y E65Y V100I,-2.21,0.95,67,73.3,10.7
F29A V35M F56Y E65Y V100I,-4.55,1.12,71.1,82.4,19.8
F56Y E65Y,-1.26,0.74,65.5,69,6.4
